This passage reports Kd results from article doi:10.1101/2025.01.05.631353 (bioRxiv, 2025).

Square brackets hold non-standard residues; d marks the D form. Ends that are not written are not given here. pT = C[C@@H](OP(=O)(O)O)[C@H](N)C(=O)O; pS = N[C@@H](COP(=O)(O)O)C(=O)O

Assay [1] has as its target β-arrestin2 R166A (UniProt P29067 1-410, R166A). Kind of assay: ITC. A general note: In ITC the heat of successive injections is recorded.
Assay [2] concerns the target β-arrestin2 R394A (UniProt P29067 1-410, R394A). Kind of assay: ITC.

β-arrestin2 R166A, sequence (P29067 whole entry R166A): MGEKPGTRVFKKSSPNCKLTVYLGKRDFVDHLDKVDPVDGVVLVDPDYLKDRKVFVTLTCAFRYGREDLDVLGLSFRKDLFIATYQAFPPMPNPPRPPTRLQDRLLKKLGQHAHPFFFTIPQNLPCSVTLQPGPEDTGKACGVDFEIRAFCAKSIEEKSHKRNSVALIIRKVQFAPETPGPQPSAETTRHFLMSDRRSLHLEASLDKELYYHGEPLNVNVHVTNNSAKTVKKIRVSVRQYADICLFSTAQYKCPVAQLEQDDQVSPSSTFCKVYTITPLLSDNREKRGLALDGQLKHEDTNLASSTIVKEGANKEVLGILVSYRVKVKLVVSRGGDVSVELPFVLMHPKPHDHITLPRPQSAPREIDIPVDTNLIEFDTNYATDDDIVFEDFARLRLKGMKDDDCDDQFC
β-arrestin2 R394A, sequence (P29067 whole entry R394A): as the sequence (P29067 whole entry R166A) above, with A166R, R394A counted along it

By Kd is commonly meant the equilibrium constant for the complex coming apart. Read a low Kd as tighter binding. On to ASRV[pS]E[pT]EY[pS]ALEQ [C7pp2, phosphopeptide derived from the carboxyl terminus of CXCR7 (residues 346-359)], for which the Kd in assay [1] was determined as 16.4 µM; in assay [2], 1.1 µM.
